This is an account of results in doi:10.1101/2021.03.14.433363.

Series [1] deals with T1, RIG-I CTD (human, UniProt O95786 802-925).
T1 sequence: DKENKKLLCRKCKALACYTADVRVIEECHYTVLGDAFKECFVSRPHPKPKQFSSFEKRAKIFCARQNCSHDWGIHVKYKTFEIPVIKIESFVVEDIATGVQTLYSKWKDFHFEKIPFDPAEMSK
The series can be described thus: limited trypsin proteolysis protection.

Series [2] concerns the target T2, DRH-3 CTD (Caenorhabditis elegans, UniProt Q93413 940-1108).
T2 sequence: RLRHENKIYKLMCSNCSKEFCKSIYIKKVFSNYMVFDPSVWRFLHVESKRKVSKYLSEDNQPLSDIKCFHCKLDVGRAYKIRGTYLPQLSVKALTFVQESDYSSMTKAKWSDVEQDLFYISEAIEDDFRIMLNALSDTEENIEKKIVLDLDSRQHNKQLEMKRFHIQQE
The series can be described thus: crystal structure.

In the next series the target is T3, DRH-3 full length (Caenorhabditis elegans, UniProt Q93413 1-1119).
T3 sequence: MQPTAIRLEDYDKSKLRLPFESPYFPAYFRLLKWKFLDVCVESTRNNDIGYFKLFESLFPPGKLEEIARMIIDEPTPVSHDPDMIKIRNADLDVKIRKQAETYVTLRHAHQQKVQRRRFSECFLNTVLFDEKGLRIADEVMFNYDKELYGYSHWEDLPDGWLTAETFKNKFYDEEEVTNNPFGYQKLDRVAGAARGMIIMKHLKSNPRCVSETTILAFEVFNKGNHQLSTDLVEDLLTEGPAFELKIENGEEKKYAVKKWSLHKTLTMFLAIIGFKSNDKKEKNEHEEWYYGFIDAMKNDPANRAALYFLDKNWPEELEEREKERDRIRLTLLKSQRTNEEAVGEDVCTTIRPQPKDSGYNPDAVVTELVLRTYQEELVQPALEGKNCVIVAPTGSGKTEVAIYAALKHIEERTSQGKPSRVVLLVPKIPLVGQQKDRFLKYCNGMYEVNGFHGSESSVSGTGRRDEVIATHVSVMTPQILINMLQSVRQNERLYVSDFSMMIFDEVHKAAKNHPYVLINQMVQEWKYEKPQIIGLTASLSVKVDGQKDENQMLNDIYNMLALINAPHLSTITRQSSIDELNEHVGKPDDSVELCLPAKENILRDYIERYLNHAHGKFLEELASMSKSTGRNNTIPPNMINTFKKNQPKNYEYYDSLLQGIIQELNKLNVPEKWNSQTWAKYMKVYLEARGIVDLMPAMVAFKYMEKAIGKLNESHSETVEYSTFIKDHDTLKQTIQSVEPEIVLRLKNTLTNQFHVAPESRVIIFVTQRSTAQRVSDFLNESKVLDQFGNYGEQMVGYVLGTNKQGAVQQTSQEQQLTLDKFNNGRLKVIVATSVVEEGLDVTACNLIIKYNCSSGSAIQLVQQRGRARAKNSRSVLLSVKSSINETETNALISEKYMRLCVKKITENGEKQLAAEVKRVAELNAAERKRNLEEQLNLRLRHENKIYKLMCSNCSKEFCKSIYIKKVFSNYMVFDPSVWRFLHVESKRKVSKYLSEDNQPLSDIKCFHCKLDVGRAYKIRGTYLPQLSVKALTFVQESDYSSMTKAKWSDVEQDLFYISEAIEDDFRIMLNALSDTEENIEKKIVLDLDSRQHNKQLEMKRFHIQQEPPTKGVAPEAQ
Nature of the series: HDX-MS.

Series [3] concerns the target T1, RIG-I CTD. The series can be described thus: limited trypsin proteolysis protection. The source holds these as a separate data set.
Series [4] deals with T2, DRH-3 CTD. Nature of the series: fluorescence polarization. (In general: Polarisation of emitted light reports the rotation of a fluorescent probe.)

Like-named read-outs stand apart in the source and are kept apart here.

B1: 5'-ppp 12-mer dsRNA (dsRNA)
RNA 1: GGCGCGCGCGCC
RNA 2: GGCGCGCGCGCC
modifications: 5'-triphosphate
As for B1, the binding result with RIG-I CTD [1] and with DRH-3 CTD [2] was “binds” in each case. As to GGACGUACGUUUCGACGUACGUCC (structured_RNA, 5'-triphosphate) [3p10L (SLR10)], in the series with DRH-3 full length, the binding result is “binds”.

B2: 5'-ppp 12-mer dsRNA with 3'-overhang (dsRNA)
RNA 1: GGCGCGCGCGCCC
RNA 2: GGCGCGCGCGCCC
modifications: 5'-triphosphate
On to B2, for which, in the series with RIG-I CTD [3], the binding result is “binds”. As to UUUAUAUAUUAGGACCGCUCGGCGGUCCUAAUAUAUAAA (structured_RNA, 5'-OH) [FAM-labelled 5'-OH 18-mer hairpin RNA], in the series with DRH-3 CTD [4], the dissociation constant (Kd) (usually a measure of binding affinity in units of concentration) stood at 0.325 ± 0.0701 µM. Regarding GGCCGCCC (ssRNA, 5'-triphosphate) [5'-ppp 8-mer ssRNA], the binding result in the series with DRH-3 CTD [2] is “binds”.
